B1: B-box zinc finger protein 21 (Arabidopsis thaliana (Mouse-ear cress)), Q9LQZ7 (parent)
chain: MKIRCDVCDKEEASVFCTADEASLCGGCDHQVHHANKLASKHLRFSLLYPSSSNTSSPLCDICQDKKALLFCQQDRAILCKDCDSSIHAANEHTKKHDRFLLTGVKLSATSSVYKPTSKSSSSSSSNQDFSVPGSSISNPPPLKKPLSAPPQSNKIQPFSKINGGDASVNQWGSTSTISEYLMDTLPGWHVEDFLDSSLPTYGFSKSGDDDGVLPYMEPEDDNNTKRNNNNNNNNNNNTVSLPSKNLGIWVPQIPQTLPSSYPNQYFSQDNNIQFGMYNKETSPEVVSFAPIQNMKQQGQNNKRWYDDGGFTVPQITPPPLSSNKKFRSFW
partner: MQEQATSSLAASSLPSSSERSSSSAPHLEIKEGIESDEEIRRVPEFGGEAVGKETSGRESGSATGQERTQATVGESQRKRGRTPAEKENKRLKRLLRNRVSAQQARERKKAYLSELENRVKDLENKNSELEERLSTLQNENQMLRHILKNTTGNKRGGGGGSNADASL

Variants of: B1
Settings: with hy5_arath HY5, O24646

Effect of a mutation on the interaction, disrupting interaction:
MKIRCDVCDKEEASVFCTADEASLCGGCDHQVHHANKLASKHLRFSLLYPSSSNTSSPLCDICQDKKALLFCQQARAILCKDCDSSIHAANEHTKKHDRFLLTGVKLSATSSVYKPTSKSSSSSSSNQDFSVPGSSISNPPPLKKPLSAPPQSNKIQPFSKINGGDASVNQWGSTSTISEYLMDTLPGWHVEDFLDSSLPTYGFSKSGDDDGVLPYMEPEDDNNTKRNNNNNNNNNNNTVSLPSKNLGIWVPQIPQTLPSSYPNQYFSQDNNIQFGMYNKETSPEVVSFAPIQNMKQQGQNNKRWYDDGGFTVPQITPPPLSSNKKFRSFW [D75A]
MKIRCDVCDKEEASVFCTAAEASLCGGCDHQVHHANKLASKHLRFSLLYPSSSNTSSPLCDICQDKKALLFCQQDRAILCKDCDSSIHAANEHTKKHDRFLLTGVKLSATSSVYKPTSKSSSSSSSNQDFSVPGSSISNPPPLKKPLSAPPQSNKIQPFSKINGGDASVNQWGSTSTISEYLMDTLPGWHVEDFLDSSLPTYGFSKSGDDDGVLPYMEPEDDNNTKRNNNNNNNNNNNTVSLPSKNLGIWVPQIPQTLPSSYPNQYFSQDNNIQFGMYNKETSPEVVSFAPIQNMKQQGQNNKRWYDDGGFTVPQITPPPLSSNKKFRSFW [D20A]
MKIRCDVCDKEEASVFCTADEASLCGGCDHQVHHANKLASKHLRFSLLYPSSSNTSSPLCDICQDKKALLFCQQDRAILCKDCASSIHAANEHTKKHDRFLLTGVKLSATSSVYKPTSKSSSSSSSNQDFSVPGSSISNPPPLKKPLSAPPQSNKIQPFSKINGGDASVNQWGSTSTISEYLMDTLPGWHVEDFLDSSLPTYGFSKSGDDDGVLPYMEPEDDNNTKRNNNNNNNNNNNTVSLPSKNLGIWVPQIPQTLPSSYPNQYFSQDNNIQFGMYNKETSPEVVSFAPIQNMKQQGQNNKRWYDDGGFTVPQITPPPLSSNKKFRSFW [D84A]
